Target: taxol-stabilized microtubules (polymerized porcine tubulin) (porcine, UniProt P02550 1-451; P02554 1-445)
Sequence (P02550 whole entry, chain 1 of 2): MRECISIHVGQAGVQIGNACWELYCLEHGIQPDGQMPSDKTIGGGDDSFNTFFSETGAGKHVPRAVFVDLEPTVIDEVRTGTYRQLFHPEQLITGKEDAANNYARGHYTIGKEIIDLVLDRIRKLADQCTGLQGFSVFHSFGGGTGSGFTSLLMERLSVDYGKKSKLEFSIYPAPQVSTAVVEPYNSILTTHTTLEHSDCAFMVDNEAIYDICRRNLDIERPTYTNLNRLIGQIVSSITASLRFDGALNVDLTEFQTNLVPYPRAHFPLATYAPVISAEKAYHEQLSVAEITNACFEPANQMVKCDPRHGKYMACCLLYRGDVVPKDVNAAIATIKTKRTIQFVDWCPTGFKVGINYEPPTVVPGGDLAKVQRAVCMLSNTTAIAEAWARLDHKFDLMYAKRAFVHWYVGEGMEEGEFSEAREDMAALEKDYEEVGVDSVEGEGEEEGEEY
Sequence (P02554 whole entry, chain 2 of 2): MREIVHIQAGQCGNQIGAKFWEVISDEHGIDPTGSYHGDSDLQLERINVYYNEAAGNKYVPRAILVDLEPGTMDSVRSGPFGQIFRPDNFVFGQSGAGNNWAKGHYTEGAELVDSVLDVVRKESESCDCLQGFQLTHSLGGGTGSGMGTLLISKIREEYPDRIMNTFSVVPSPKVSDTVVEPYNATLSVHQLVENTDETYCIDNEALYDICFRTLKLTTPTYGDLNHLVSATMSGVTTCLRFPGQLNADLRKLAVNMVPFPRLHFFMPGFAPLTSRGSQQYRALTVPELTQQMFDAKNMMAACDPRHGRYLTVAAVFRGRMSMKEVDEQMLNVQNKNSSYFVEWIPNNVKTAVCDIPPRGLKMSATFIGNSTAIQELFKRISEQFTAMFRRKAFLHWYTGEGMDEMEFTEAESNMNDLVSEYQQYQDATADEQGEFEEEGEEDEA

| Kd [µM] | Binder |
| --- | --- |
| 6.9 | 6xHis-tagged CC1ΔC223 (cytosolic N-terminal part of COMPANION OF CELLULOSE SYNTHASE 1, residues 1-120) (domain or fragment) MHAKTDSEVTSLAASSPARSPRRPVYYVQSPSRDSHDGEKTATSFHSTPVLSPMGSPPHSHSSMGRHSRESSSSRFSGSLKPGSRKVNPNDGSKRKGHGGEKQWKECAVIEEEGLLDDGD |
| 16.3 | 6xHis-tagged CC1ΔC223YYAA (domain or fragment) MHAKTDSEVTSLAASSPARSPRRPVAAVQSPSRDSHDGEKTATSFHSTPVLSPMGSPPHSHSSMGRHSRESSSSRFSGSLKPGSRKVNPNDGSKRKGHGGEKQWKECAVIEEEGLLDDGD |

— publication PMC6382854 (2019)
